Source: the nanobody polyreactivity screen of Harvey et al. (2022)

Assay: yeast display, Sf9 membrane polyspecificity reagent, FACS + sequencing; frameworks hold sequencing errors
How it was run: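 A nanobody's polyreactivity label depends on the gate it was sorted from. Yeast display cells were stained with 10% biotinylated, detergent-solubilized Sf9 membrane reagent for 1 hour at 4 °C, enriched on streptavidin microbeads and sorted by FACS. The low and high (top ~1%) gates were set on anti-HA fluorescence for expression and streptavidin fluorescence for reagent binding.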

| Sequence | polyreactivity (PSR sort gate) |
| --- | --- |
| QVQLVESGGGLVQAGGSLRLSCAASGYIFNGNAMGWYRQAPGKERELVATITRRGGSTYYADSVKGRFTISRDNAKNTVYLQMNSLKPEDTAVYYCNKRDYSGDYYGPLDYWGQGTQVTVSS | high polyreactivity |
| QVQLVESGGGLVQAGGSLRLSCAASGYIFPRYAMGWYRQAPGKERELVAAITGSGGSTYYADSVKGRFTISRDNAKNTVYLQMNSLKPEDTAVYYCNTVYYRSGSQRLDYWGQGTQVTVSS | high polyreactivity |
| QVQLVESGGGLVQAGGSLRLSCAASGYIFPYNAMGWYRQAPGKERELVATITWTGGSKYYADSVKGRFTISRDNAKNTVYLQMNSLKPEDTAVYDCADDLSIRYDHEYGYWGQGTQVTVSS | low polyreactivity |
| QVQLVESGGGLVQAGGSLRLSCAASGYIFRGYVMGWYRQAPGTERELVAGISRSGSSTYYADSVKGRFTISRDNAKNNVYLQMNSLKPEDTAVYYCAAVRSGIEYGYWGQGTQVTVSS | high polyreactivity |
| QVQLVESGGGLVQAGGSLRLSCAASGYIFRHYAMVWYRQAPGKERELVAAISSSGGRTNYADSLKGRFTISRDNAKITVYLQMNSLKPEDTAVYYCNAGRYQYLGGYGYWGQGTQVTVSS | low polyreactivity |
| QVQLVESGGGLVQAGGSLRLSCAASGYIFRIYAMGWYRQAPGKERELVATITNGGSTHYADSVKGRFTISRDNAKNTVYLQMNSLKPEDTAVYYCAADLLYSEYDYWGQGTQVTVSS | high polyreactivity |
| QVQLVESGGGLVQAGGSLRLSCAASGYIFRQNAMGWYRQAPGKERELVAAISRSDDNTFYADSVKGRFTISRDNAKNTVYLLMNSLKPEDTAVYYCAKYAVPWRYPRGYDYWGQGTQVTVSS | low polyreactivity |
| QVQLVESGGGLVQAGGSLRLSCAASGYIFRWYAMGWYRQAPGKERELVAAISGRGGRTYYADSVKGRFTISRDNAKNTVYLQMNSLKPEDTAVYYCAAVPVVQSQPTYYYWGQGTQVTVSS | high polyreactivity |
| QVQLVESGGGLVQAGGSLRLSCAASGYIFSGYAMGWYRQAPGKERELVAAISSNGGSTYYADSVKGRFTISRDNAKNTVNLQMNSLKPEDTAVYYCNRGLAARVGRGDYWGQGTQVTVSS | low polyreactivity |
| QVQLVESGGGLVQAGGSLRLSCAASGYIFSLYAMGWYRQAPGKERELVADITTSAGSTYYADSVKGRFTISRDNAKNTVYLQMNSLKPEDTAVYYCAADVYGHTYYDYDYWGQGTQVTVSS | low polyreactivity |
| QVQLVESGGGLVQAGGSLRLSCAASGYIFTEYAMGWYRQAPGKERELVAAIDWSGGSTYYADSVKGRFTISRDNAKNTVYLQMNSLKPEDTAVYYCAKYYYTSIVGYDSWGQGTQVTVSS | low polyreactivity |
| QVQLVESGGGLVQAGGSLRLSCAASGYIFTRNAMGWYRQAAGKERELVATISSRGGRTYYADSVKGRFTISRDNAKNTVYLQMNSLKPEDTAVYYCAATPWYRTRTYDYWGQGSQVTVSS | high polyreactivity |
| QVQLVESGGGLVQAGGSLRLSCAASGYIFTYNAMGWYRQAPGKERELVAAISSGGSTNYADSVKGRFTISRDNAKNTVYLQMNSLKPEDTAVYYCAAPVWTYDDYFSYSYSYGYWGQGTQVTVSS | low polyreactivity |
| QVQLVESGGGLVQAGGSLRLSCAASGYIFVHYAMGWYRQEPGKERELVAAISKSGSSTYYADSVKGRFTISRDNAKNTVYLQMHSLKPEDTAVYYCAGVYPYVSGYTYGYWGQGTQVTVSS | low polyreactivity |
| QVQLVESGGGLVQAGGSLRLSCAASGYIFVKNAMGWYRQAPGTERELVAAISTRGGRTYYADSVKGRFTISRDNAKNTVYLQMNSLKPEDTAVYYCAAVHQTSYYDANSYGYWGQGTQVTVSS | high polyreactivity |
| QVQLVESGGGLVQAGGSLRLSCAASGYIFVTNAMGWYRQAPGKERELVAAISYRGGSTSYADSVKGRFTISRDNAKNTVYLQMNSLKPEDTAVYYCNAVTFPLGYLRFYYWGQGTQVTVSS | low polyreactivity |
| QVQLVESGGGLVQAGGSLRLSCAASGYIFVTNAMGWYRQAPGKERELVAAISYRGGSTSYADSVKGRFTISRDNAMNTVYLQMNSLKPEDTAVYYCNAVTFPLGYLRFYYWGQGTQVTVSS | low polyreactivity |
| QVQLVESGGGLVQAGGSLRLSCAASGYIFWENAMGWYRPAPGKERELVAAITVSGGGTYYADSVKGRFTISRDNAKNTVYLQRNSLKPEDTAVYYCAADEDNPWLWFYYWGQGTQVTVSS | low polyreactivity |
| QVQLVESGGGLVQAGGSLRLSCAASGYIFWENAMGWYRQAPGKERELVAAITVSGGGTYYADSVKGRFTISRDNAKNTVYLQMNSLEPEDTAVYSCAADEDNPWLWFYYCGQGTQVTVSS | low polyreactivity |
| QVQLVESGGGLVQAGGSLRLSCAASGYIFYDNAMGWYRQAPVKERELVAAISASGGDTYYADSVKGRFTISRDNAKNTVYLQMNSLKPDDTAVYYCAADLITYAMEYWGQGTQVTVSS | low polyreactivity |
| QVQLVESGGGLVQAGGSLRLSCAASGYIFYFYAMGWYRQAPGKERELVAAISSSGGSTRYADSVKGRFTISRDNAKNTVYLQMNSLKPEDTAVYYCAASHWSGAAWYYYWGQGTQVSVSS | high polyreactivity |
| QVQLVESGGGLVQAGGSLRLSCAASGYIFYNAMGWYRQAPGKERELVASISRRSGSTYYADSVKGRFTISRDNAKNTVYLQMNSLKPEDTAVYYCAADRPPWETYGYDYWGQGTQVTVSS | low polyreactivity |

| Sequence | polyreactivity (PSR sort gate) |
| --- | --- |
| QVQLVESGGGLVQAGGSLRLSCAASGYIISYNTMGWYRPAPGKERELVASIRWGGGRTYYADSVKGRFTISRDNAKNTVYLQLNSLKPEDTAVYYCNVKSSRFLDVGRMEYWGQGTQVTVSS | high polyreactivity |
| QVQLVESGGGLVQAGGSLRLSCAASGYILDVYAMGWYRQAHGKERELVAVITWRTDSTYYADSVKGRFTISRDNAKNTVYLQMNSLKPEDTAVYYCAKVLRLSKYRYYYWGQGTQVTVSS | high polyreactivity |
| QVQLVESGGGLVQAGGSLRLSCAASGYILGKNVMGWYRPAPGKERELVAAISSGGRTYYADSVKGRFTISRDNAKNTVYLQMNSLKPEDTAVYYCAPDLKYYGYDYWGQGTQVTVSS | high polyreactivity |
| QVQLVESGGGLVQAGGSLRLSCAASGYILQKYAMGWYRQAPGKERELVATISGGGGSTYYADSVKGRFTISRDNAKNTVYLLMNSLKPEDTAVYYCAKEYPWLPRSYEYWGQGTQVSVSS | low polyreactivity |
| QVQLVESGGGLVQAGGSLRLSCAASGYILRNAMGWYRQAPGKERELVAAIRFRGGSTSYADSVKGRFTISRYNAKNTVYLQMKSLKPEDTAVYYCNALWWVIRPYQRHDYWGQVTQVTVSS | low polyreactivity |
| QVQLVESGGGLVQAGGSLRLSCAASGYILRRNAMGWYRQAPGKERELVARINSSGGSTYYADSVKGRFTISRDNAKNTVYLQMNSLKPEDTAVYYCAKSYYRGRDYWGQGTQVTVSS | high polyreactivity |
| QVQLVESGGGLVQAGGSLRLSCAASGYILYANTMGWYRQAPGKERELVAAISGGGSTNYADSVKGRFTISRDNAKNTVYLQMNSLKPEDTAVYYCAVKTNQAGYDYWGQGTQVTVSS | low polyreactivity |
| QVQLVESGGGLVQAGGSLRLSCAASGYISNANAMGCYRQAPGKERELVAAITWSGGSTYADSVKGRFTITRDNAKNTVYLQMNSLKPEDTAVYYCAVGPYRVAKYNYWGQGTQVTVSS | low polyreactivity |
| QVQLVESGGGLVQAGGSLRLSCAASGYISYYYAMGWYREAPGKEREFVAGISWSGGSTYYADPVKGRFTISRDNAKNTVYLQMNSLKPEDTAVYDCAARLSRWWPPTGVHYSDRYYGGQGTQVTVSS | high polyreactivity |
| QVQLVESGGGLVQAGGSLRLSCAASGYISYYYAMGWYRQAPGKEREFVAGISWSGGSTYYADPVKGRFTISRDNAKNTVYLQMNSLKTEDTAVYYCAARLSRWWPPTRVHYTDRYYWGQGTQVTVSS | high polyreactivity |
| QVQLVESGGGLVQAGGSLRLSCAASGYLIGGNAMGWYRQAPGKERELVAVISSRAGRTYYADSVKGRFTISRDNAKNTVYLQMNSLKPEDTAVYYCNRVFSYQYKRDYWGQGTQVTVSS | high polyreactivity |
| QVQLVESGGGLVQAGGSLRLSCAASGYMGWYRQAPGKERELVATISGSGGSTYYADSVKGRFTISRDNAKNTVYLQMNSLKPEDTAVYYCTTEIWGVNRSGYDYWGQGTQVTVSS | low polyreactivity |
| QVQLVESGGGLVQAGGSLRLSCAASGYNFDHYAMGWYRQAPGKERELVAAISRSAGSTYYADSVKGRFTISRDNAKNTVYLQMTSLKTEDTAVYYCNTVFRWIDRVLGYEYWGQGTQVTVSS | high polyreactivity |
| QVQLVESGGGLVQAGGSLRLSCAASGYNFYGYAMGWYRLAPGKERELVAAITVRGGSTYYADSVKGRFTISRDNAKNTVYLQMNCQKPEETAVYYCAAAPQFTFGVGYWGQGTQVTVSS | low polyreactivity |
| QVQLVESGGGLVQAGGSLRLSCAASGYSFSYYAMGWSRQAPGKERELVAAISWSGGSTYYADSVKGRFTISRDNAKNTVYLQMNRLKPEDTAVYYCATEVVAYRRYSAYGYWGQGTQVTVSS | high polyreactivity |
| QVQLVESGGGLVQAGGSLRLSCAASGYTDYAMGWYRQAPGKERELVATITSGDNTNYADSVKGRFTISRDNAKNTVDLQMNSLKPEDTAVYYCAAEYGMHYGIDYWGQGTQVTVSS | low polyreactivity |
| QVQLVESGGGLVQAGGSLRLSCAASGYTFAYYVMGWYRQAPGKERELVATIRSRAGRTYYADSVKERFTISRDNAKNTVYLQMNSLKPEDTAVYYCAAGWYYTYDYWGQGTQVTVSS | high polyreactivity |
| QVQLVESGGGLVQAGGSLRLSCAASGYTFAYYVMGWYRQAPGKERELVATIRSRAGRTYYADSVKGRFTISRDNAKNTVYLQLNSLKPEDTAVYYCAAGWYYTYDYWGQGTQVTVSS | high polyreactivity |
| QVQLVESGGGLVQAGGSLRLSCAASGYTFDKYAMGWYRPAPGKERELVAAITDGGSTNYADSVKGRFTISRDNAKNTVYLQMNSLKPEDTAVYYCNDELQWEVYYDRYPEYDHWGQGTQVTVSS | low polyreactivity |
| QVQLVESGGGLVQAGGSLRLSCAASGYTFDKYVMGWYRQAPGKERELVAAISRSGGRTYYADSVKGRFTISRDNAKNTVYLQMNSLKPEDTAVYYCNALWFYNGLSYEYWGQGTQVTVSS | high polyreactivity |
| QVQLVESGGGLVQAGGSLRLSCAASGYTFDQYAMGWYRQAPGKERELVAGIDSAGSTYYADSVKGRFTISRDNAKITVYLQMNSLKPEDTAVYYCNADDLNTEVPYYYWGQGTQVTGSS | low polyreactivity |
